Assay results published in patent US20240317842A1 (HOSPITAL FOR SICK CHILDREN, published 2024).

Biological target: T1, 32-N MB.v3
T1 construct: Self-assembled apoferritin nanocage (Multabody), plasmids co-transfected 3:1:1; monomeric IgG1 Fc chain at the C-terminus of C-ferritin, which dimerises in the particle; also called Multabody.v3; T-01 MBv2
Experiment: BLI, His-tagged FcγRIIa on Ni-NTA biosensors, Multabody in solution [8f]

B1: FcRIIa (receptor, human, UniProt P12318 34-217, looked up)
receptor chain: QAAAPPKAVLKLEPPWINVLQEDSVTLTCQGARSPESDSIQWFHNGNLIPTHTQPSYRFKANNNDSGEYTCQTGQTSLSDPVHLTVLSEWLVLQTPHLEFQEGETIMLRCHSWKDKPLVKVTFFQNGKSQKFSHLDPTFSIPQANHSHSGDYHCTGNIGYTLFSSKPVTITVQVPSMGSSSPMG
notes: His-tagged ligand loaded on Ni-NTA biosensors; also called FcγRIIa
binding result: no binding
